Laboratory results taken from the nanobody polyreactivity screen of Harvey et al. (2022).

Test: yeast display, Sf9 membrane polyspecificity reagent, FACS + sequencing; frameworks hold sequencing errors
In short: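 A synthetic nanobody library was expressed on Saccharomyces cerevisiae BJ5465 by galactose induction for 36–48 hours. The library was stained for 1 hour at 4 °C with 10% biotinylated, detergent-solubilized Sf9 membrane reagent and enriched with streptavidin microbeads before FACS. Low and high (top ~1%) gates were set on anti-HA fluorescence for expression and streptavidin fluorescence for reagent binding, and each polyreactivity label reflects the gate of origin.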

Row | Sequence | polyreactivity (PSR sort gate)
1 | QVQLVESGGGLVQAGGTLRLSCAASGRIFQAYAMGWYRQAPGKERELVASISYRGGITYYADSVKGRFTISRDNAKNTVYLQMNSLKPEDTAVYYCAARSWYFSWEMYYWGQGTQVTVSS | high polyreactivity
2 | QIQLEESGGGLVQAGGSLRLSCAASGSIFSVYAMGWYRQAPGKERELVATISTGGSTYYADSVKGRFTISRDNAKNTVYLQMNSLKPEDTAVYYCNAQFTPRYWGGYDSWGQGTQVTVSS | low polyreactivity
3 | QVQLVESGGGLVQAGGSLRLSCAASGITFRGNVMGWYRQAPGKERELVAAISGSSGRTYYADSVKGRFTISRDNAKNTVYLQMYSLKPEDTAVYYCAATRTVRSYSIAPALGYWGQGTQVTVSS | high polyreactivity
4 | QVQLVESGGGLVQAGGSLRLSCAASGFIFSLYAMGWYRQAPGKERELVAAISKRGGSTNYADSVKGRFTISRDNAKNTVYLQMNSLKPEDTAVYYCAKARPGFLYDHWGQGTQVTVSS | high polyreactivity
5 | QVQLVESGGGLVQAGGSLRLSCAASGFTFAPNAMGWYRQAHGKERELVAAISSASSTYYADSVKGRFTISRDNAKNTVYLQMNSLKPEDTAVYYCAAREGWGFYYWGQGTQGTVSS | high polyreactivity
6 | QVQLVESGGGLVQAGGSLRLSCAASGSTFRYYAMGWYRQAPGKERELVAAITSSGGRTYYADSVKGRFTISRDNAKNTVYLQMNSLKPEDTAVYYCAAYAYYHTGDDYWGQGTQVTVSS | high polyreactivity
7 | QVQLVESGGGLVQAGGSLRITCAGSGRTFFGYAMGWYRQAPGKERELVAAITRGGSTNYADSVKGRFTISLDNGKNTLYLQMNSLKPEDSAVYYCAVGVPTTFKNRRYFRMDYWGQGTQGTVSS | high polyreactivity
8 | QVQLVESGGGLVQAGGSLRLSCAASGSTFSYYAMGWYRQAPGKERELVAAITSSGGRTYYADSVKGRFTISRDNAKYTVYLQMNSLKPEDTAVYYCATRKPRYQRAFDSWGQGTQVTVSA | high polyreactivity
9 | QVQLVESGGGLVQAGGSLRLSCAASGSTFTYNAMGWYRQAPGKERELVAAIRSNGGSTYADSVKGRFTISRDNAKNTVYLQMNCLKPEDTAVYYWAARWRDYYRWGSRGGYGYWGQGTQVTVSS | high polyreactivity
10 | QVQLVESGGGLVQAGGSLRLSCAASGFIFGQYAMGWYRQAPGKERELVAAISWSGGRTNYADSVKGRFTISRDNAKNTVYLQMNSLKPEDTAVYYCAARKGKYPQYPYGYWGQGTQVTVSA | high polyreactivity
11 | QVQLVESGGGLVQAGGSLRLSCAASGFILWYYTMGWYRQAPGKERELVAVIDWSGDSTYADSVKGRFTISRDNAKNTVYLQMNSLKPEDTAVYYCNKGYPSPQDTYYVPMDYWGQGTQVTVSS | low polyreactivity
12 | QVQLVESGGGLVQAGGSLRLSCAASGLIFYYYAMGWYRPAPGKERELVAAISRRGGSTYYADSVKGRFTISRDNAKNTVYLQMNSLKPEDTAVYYCNKYRSYWSGPSYWREYDYWGQGTQVTVSS | high polyreactivity
13 | QVQLVESGGGLVQAGGSLRLSCAASGGTFGAYAMGWYRQAPGKERELVAAINVGGGSTYYADSVKGRFTISRDNAKNTVDLQMNSLKPEATAGYYCAKDLYDGYWRGDYWGQGTQVTVSS | low polyreactivity
14 | QVQLVESGGGLVQAGGSLRLICAASGRTFTGYTMGWYRQAPGKEREFVAAISSNGGRTYYADSVKGRFTISRDNAKNTVYLQMNSLKPEDTAVYYCAAPYTFWGQGTQVTVSS | high polyreactivity
15 | QVQLGESGGGLVQAGGSLRLSCAASGRIFRNNAMGWYRQAPGKERELVAAITWSGGSTYYADSVKGRFTISRDNAKNTVYLQMNSLKPEDTAVYYCNAGRGYKYSYTYDYWGQGTQVTLSS | low polyreactivity
16 | QVQLVESGGGLVQAGGSLRLSCAASGRTFGYYAMGWYRQAPGKERELVAAITGSGGSTYYADSVKGRFTISRDNAKNTVYLQMNSLKPEDTAVYYCAVESVRTRGWIRLDYWGQGTQVTVSS | high polyreactivity
17 | QVQLVESGGGLVQAGGSLRLSSAASGSISADYVMGWYRQAPGKERELVAAISVSAGTTYYADSVKGRFTISRDNAKNTVYLQMNSLKPEDTAVYYCAATDSYYWLYYYGYSPGNDYWGQGTQVTVSS | low polyreactivity
18 | QVQLVESGGGLVQAGGSLRLSCAASGSIFYGNTMGWYRQAPGKERELVAGITRGGGSTYYADSVKGRFTISRDNAKNTVYLQMNSLKPEDTAVYYCAATFPYHDGDYWGQGTQVTVSS | low polyreactivity
19 | QVQLVESGGGLVQAGGSGRLSCAASGRIFAGYAMGWYIQAPGKERELVAAISSSGGSTYYSDSVKGRFTISRDNAKNSVYLQMNSLKPEDTAVYYCADRGKRNTPQRFYYWGQGTQVTVSS | high polyreactivity
20 | QVQLVESGGGLVQAGGSLRLSCAASRSTFRDNAMGWYRQAPGKVRELVAGITRGGITNYADSVKGRYTISRDNAKNTVYLQMNSLKPEDTEVYYFAAEVTGTYYDYDYWGQGTQVTVSS | low polyreactivity
21 | QVQLVESGGGLVQAGCSLRLSCAASGFTFDGYAMVSYRQAPGKERELVAAISDSGDSTYYADSVKGRFTISRDNAKNTVYLQMISLKPEDTADYYCAAALGYYWSDYFAYDYWGQGTQVTVSS | low polyreactivity
22 | QVQLVESGGGLVQAGGSLRLSCAASGRIFIAYAMGWYRQAPGKERELVAAITDDGGTNYADSVKGRFTISRDNAKNTVYLQMNSLKPEDTAVYYCAATYLIGYYYVWEYDYWGQGTHVTVSS | low polyreactivity

Row | Sequence | polyreactivity (PSR sort gate)
23 | QVQLVESGGGLVQAGGSLRLSCAASGFTIYYYAMGWDRQAPGKERELVASITSGGSTYYADSVKGRFTISRDNAKNTVYLQMNSLKPEDTAVYYCAADYYSPSLRYDYWGQGTQVTVSS | low polyreactivity
24 | QVQLVESGGGLVQAGGSLRLSCAASGRTFIVYAMGWYRQAPGKERELVAAITRSGSSTYYADSVKGRFTISRDNAKNTVYLQMNSLKPEDTAVYYCAADVGFGGYSHFDPYEYWGQGTQVTVSS | high polyreactivity
25 | QVQLVESGGGLVQAGGSLRLSWAASGIILQEYTMGWYRPAHWKERELVAAISVRGGSTYYADSVKGRFTISRDHAKNTVYLQMNSLKPEDTAVYYCAAAYYRRPPGFNYWGQGTEVTVSS | high polyreactivity
26 | QVQLVESAGGLVQAGGSLRLICAASGLIFYRNTMGWYRQAPGKERELVAAISVSGGSTNYADSVKGRFTISRDNAKNTVYLQMNILKPEDTAVYFCATRVNYGYYYWGQGTQVTVSS | high polyreactivity
27 | QVQLVESGGGLVQAGGSLRLSCAASGSTFSQYAMGWYRQAPGKERELVAAITGSTGSTYYADSVKGRFTISRDNAKNTVYLQMNSLKPEDTAVYYCAAVSSNARHVSRRRGYYWGQGTQVTVSS | high polyreactivity
28 | QVQLVQSGGGLVQAGGSLRLSCAPSGSISTPYTMGWYRQAPGKERELVAAISWIGDTTSYADSVKGRYTISRDNAKNTVYLQMKSLKPEDTAVYYCDADYLWYNYAGQVDQDYDYWGQGTQVTVSS | low polyreactivity
29 | QVQLVESGGGLVQAGGSLRLSCAASGSTLAPYVMGWYRQAPGKERELVSVISTRTGRTSYADSVKGRFTLSRDNAKNTVYLQMNSLKPEDTAVYYCNAQWVSWWSLYDYWGQGTQVTVSS | high polyreactivity
30 | QVQLVESGGGLVQAGGSLRLSCAASGRIFQRYTMGWYRQAPGKEWEFVAAITYSGGSTHYADSVKGRFTISRDNAKNTVYLQMNSLKPEDTAVYYCATDYIRYRWYVFYGWLWRYDYWGQGTQVTVSS | low polyreactivity
31 | QVQLVESRGGLVQAGGSLRLSCAASGSTFYLNVMGWYIQAPGKERELVAAITYRGGRTSYADSVKGRFTISRDNAKNTVYLQMISLKPEDTAVYYCATPKYYGYYYWGHGTQVTVSS | high polyreactivity
32 | QVQLVESGGGLVQAGGSLRLSCAASGNIFESYGMGWYRQAPGKERELVATINTSSGSTYYADSVKGRFTISRDNAKNTVYLQMNSLKPEDTAVYYCAARFDSFWVEYDYWGQGTQVTVSS | low polyreactivity
33 | QVQLVESGGGLVQAGGSLRLSCAASGSIFKEYAMGWYRQAPGKERELVATISWSGGSTYYADSVKGRFTISRDNAKNTVYLQMNSLKPEDTAVYYCNKRTPWWYVVRYDYWGQGTQVTVSS | high polyreactivity
34 | QVQLVESGGGLVQAGGSLRLSCAASGSTLRGYVMGWYRQAPGTERELVAAITQRAGSTYYADSVKGRFTISRDNAKNTVYLQMNSLKPEDTAVYYCRRFYFGKYDYWGQGTQVTVSS | high polyreactivity
35 | QVQLVESGRGLLQAGGSLRLSCAASGSIFYPYVMGWYRQAPGKERELVASISWRGGRTYYADSVKGRFTISRDNAKNTVYLQMNSMKPEDTAVYYCAKRTYDSFYGYYYWGQGTQVTVSS | high polyreactivity
36 | QVQLVESGGGLVQAGGSLRLSCAASGRIFSYYAMGWYRQAPGKERELVAAISTSGGNTYYADSVKGRFTISRDNAKNTVYLQMNSLLTEDTAVYYCAAAYFSSGYKYYYWGQGTQVSVSS | high polyreactivity
37 | QVQLVESGGGLVQAGGSLRLSCAASGSIFYWYVMVWYRQAPGKERELVATISDSTNYADSVKGRFTISRDNAKNTVYLQMNSLKPEDTAVYYCNARVRGLGKYESWGQGTQVTVSS | low polyreactivity
38 | QGQLEESGGGLVQAGGSLRLSCAASGFTIYRYAKGWYRQAPGKAMELVAAISNSGGSTYYADSVKGRFTISRDNAKNTVYVQMNSLKPEDTAVYYCAADPGYNVYGYYYWGQGTQVTVSS | high polyreactivity
39 | QVQLVESGGGFVQAGGSLRLSCAASGLIFGRYGLGWYRQAPGKAREFVAAITQSGGATYYADSVKGRFTISRDNAKNTVYLQMNSLKPEDTAVYYCNAPIAYWRVHDKYGYWGQGTQLTVSS | low polyreactivity
40 | QVQLVESGGGLVQAGGSRRLSCAASGSISVGFTMGWYRQAPGKEWEFVAVITGTGGRTRYADSVKGRFTISRDNAKNTVYLQMNSLKPEDTAVYYCAAKIRWRGALYDYWGQGSQVTVSS | high polyreactivity
41 | QVQLVESGGGLVQAGGSLRISCAASGSTYYNAMGWYRQAPGKERELVAAFRFRSGSTYYADSVKGRFTISRDNAKNTVYLQMNSLKPEDTAVYYCAADYKRSWRYAYNYWGQGTQVTVSS | high polyreactivity
42 | QVQLVESGGGLVQAGGSLRLSCAASGNIFYKYAMGWYRQAPGKERELVAAITWRVVRTYYADSVKGRFTISRDNAKNTVYLQMNSLKPEDTAVYYCAALSRQSGDYWGQGTQVTVSS | high polyreactivity
43 | QVQLVESGGGLVQAGGSLRLSCAASGFIFYPNAMGWYRQAPGKERELVAAISSSTGSTYYADSVKGRFTISRDNAKNTVYLQMNSLNRVDTAGYYCAADLEYYPIGGDLQEREYWGQGTQVTVSS | low polyreactivity
